Data published in US20240034813A1 (Janssen / Centocor, published 2024).

Tests used:
[1] = target: T1, recombinant cMet/HGFR with c-terminal His-tag, Cy5-labeled (UniProt P08581 25-932, limits assumed, Cy5 label (reacted with Cy5 Mono NHS Ester; sites not stated)); assay: competitive TR-FRET (Eu-amivantamab/Cy5-c-MET), EC50 ratio vs Reference Material; Ex. 12 drug product with rHuPH20, 1 month at 40 C
T1 construct: Commercial protein; also called Cy5-c-MET; Cy5-labeled c-MET antigen; not shown: C-terminal His-tag
Excerpt: (§1) In this procedure, varying concentrations of unlabeled bispecific EGFR-cMet antibody sample compete with donor fluorophore (Europium (Eu) chelate) labeled bispecific EGFR-cMet antibody for binding to an acceptor fluorophore (Cy5)-labeled c-MET antigen. Excitation of the donor fluorophore results in a transfer of energy to the bound acceptor fluorophore (FRET process). The resultant FRET is detected by emission of light at 665 nm using a microplate reader capable of measuring time-resolved fluorescence. Sample dose response curves are compared to the Reference Material (RM).
(§2) c-MET Binding Materials and Methods. Certified commercial cMet, a recombinant cMet/HGFR with c-terminal His-tag is reacted with certified commercial Cy5 Mono NHS Ester to produce Cy5-labeled c-MET. Validated bispecific EGFR-cMet antibody is reacted with certified commercial Europium (Eu) chelate to produce Eu labeled bispecific EGFR-cMet antibody. […] Fluorescence is then measured by spectrophotometry at 665 nm, plotted against antibody concentration and analyzed by a four-parameter logistic model. The antibody concentration required to obtain half of the maximum fluorescence response (EC50) is determined for RM, assay control and samples. The potencies of assay control and samples are calculated based on the ratio of the sample (or control) and RM EC50 values and reported as a percentage activity relative to the RM.

[2] = target: T2, recombinant human EGFR/ErbB1/HER1 with C-terminal His tag, Cy5-labeled (human, UniProt P00533 25-645, Cy5 label (reacted with Cy5 Mono NHS Ester; sites not stated)); assay: competitive TR-FRET (Eu-amivantamab/Cy5-EGFR), EC50 ratio vs Reference Material; Ex. 2 Formulation 1 (10 mM histidine), 1 month at 40 C
T2 construct: Commercial protein; also called Cy5-EGFR; Cy5-labeled EGFR antigen; not shown: C-terminal His tag
Excerpt: as §1, with “EGFR” for “c-MET”, “RM.” for “Reference Material (RM).”
as §2, with “EGFR” for “c-MET”, “EGFR,” for “cMet,”, “human EGFR/ErbB1/HER1” for “cMet/HGFR”, “C-terminal His tag” for “c-terminal His-tag”, “EGFR.” for “c-MET.”, “Eu-labeled” for “Eu labeled”

[3] = target: T2, recombinant human EGFR/ErbB1/HER1 with …; assay: competitive TR-FRET (Eu-amivantamab/Cy5-EGFR), EC50 ratio vs Reference Material; Ex. 2 Formulation 1 (10 mM histidine), 3 months at 5 C
Excerpt: as §1, with “EGFR” for “c-MET”, “RM.” for “Reference Material (RM).”
as §2, with “EGFR” for “c-MET”, “EGFR,” for “cMet,”, “human EGFR/ErbB1/HER1” for “cMet/HGFR”, “C-terminal His tag” for “c-terminal His-tag”, “EGFR.” for “c-MET.”, “Eu-labeled” for “Eu labeled”

[4] = target: T1, recombinant cMet/HGFR with c-terminal …; assay: competitive TR-FRET (Eu-amivantamab/Cy5-c-MET), EC50 ratio vs Reference Material; Ex. 2 Formulation 3 (acetate), 3 months at 25 C
Excerpt: as §1, §2

[5] = target: T2, recombinant human EGFR/ErbB1/HER1 with …; assay: competitive TR-FRET (Eu-amivantamab/Cy5-EGFR), EC50 ratio vs Reference Material; Ex. 2 Formulation 3 (acetate), T0, 5 C table
Excerpt: as §1, with “EGFR” for “c-MET”, “RM.” for “Reference Material (RM).”
as §2, with “EGFR” for “c-MET”, “EGFR,” for “cMet,”, “human EGFR/ErbB1/HER1” for “cMet/HGFR”, “C-terminal His tag” for “c-terminal His-tag”, “EGFR.” for “c-MET.”, “Eu-labeled” for “Eu labeled”

[6] = target: T1, recombinant cMet/HGFR with c-terminal …; assay: competitive TR-FRET (Eu-amivantamab/Cy5-c-MET), EC50 ratio vs Reference Material; Ex. 2 Formulation 2 (50 mM histidine), T0, 25 C table
Excerpt: as §1, §2

[7] = target: T1, recombinant cMet/HGFR with c-terminal …; assay: competitive TR-FRET (Eu-amivantamab/Cy5-c-MET), EC50 ratio vs Reference Material; Ex. 2 Formulation 1 (10 mM histidine), 3 months at 5 C
Excerpt: as §1, §2

[8] = target: T2, recombinant human EGFR/ErbB1/HER1 with …; assay: competitive TR-FRET (Eu-amivantamab/Cy5-EGFR), EC50 ratio vs Reference Material; Ex. 11 drug product, 0 months, 5 C table
Excerpt: as §1, with “EGFR” for “c-MET”, “RM.” for “Reference Material (RM).”
as §2, with “EGFR” for “c-MET”, “EGFR,” for “cMet,”, “human EGFR/ErbB1/HER1” for “cMet/HGFR”, “C-terminal His tag” for “c-terminal His-tag”, “EGFR.” for “c-MET.”, “Eu-labeled” for “Eu labeled”

- cMET Binding activity relative to Reference Material (%) [1]: 81%
- EGFR Binding % activity relative to RM [2]: 69%
- EGFR Binding % activity relative to RM [3]: 102%
- cMET Binding % activity relative to RM [4]: 105%
- EGFR Binding % activity relative to RM [5]: 103%
- cMET Binding % activity relative to RM [6]: 102%
- cMET Binding % activity relative to RM [7]: 100%
- EGFR Binding activity relative to Reference Material (%) [8]: 89%
B1: amivantamab (bispecific antibody, human IgG1, kappa)
heavy 1: not shown
light 1: not shown
heavy 2: not shown
light 2: DIQMTQSPSSVSASVGDRVTITCRASQGISNWLAWFQHKPGKAPKLLIYAASSLLSGVPSRFSGSGSGTDFTLTISSLQPEDFATYYCQQANSFPITFGQGTRLEIKRTVAAPSVFIFPPSDEQLKSGTASVVCLLNNFYPREAKVQWKVDNALQSGNSQESVTEQDSKDSTYSLSSTLTLSKADYEKHKVYACEVTHQGLSSPVTKSFNRGEC
notes: The samples tested were high concentration (160 mg/mL) formulations, fresh or stored or stressed; also called JNJ-61186372; bispecific EGFR-cMet antibody
